Read-outs that look alike come from different tables or passages of the source. Blank lines part the entries; values can stand above or below the substance they belong to.
Columns and labels:
[1] = target: purified preparation of the V3 loop-BPs (P95/nucleolin, P40/PHAP II, P30/PHAP I) (human) (UniProt P19338); assay: inhibition of gp120 binding to the V3 loop-BPs; competitor gp120
P95/nucleolin (human) [2] = target: P95/nucleolin (human) (UniProt P19338); assay: competition: 50 µM unlabeled 5[KPR]-TASP against 5 µM biotin-labeled 5[Kψ(CH2N)PR]-TASP on CEM cells
P95/nucleolin (human) [3] = target: P95/nucleolin (human) (UniProt P19338); assay: cell-based or functional assay
[4] = target: purified preparation of the V3 loop-BPs (P95/nucleolin, P40/PHAP II, P30/PHAP I) (human) (UniProt P19338); assay: BIAcore, V3-BPs; row shifted one column to the left
[5] = target: purified preparation of the V3 loop-BPs (P95/nucleolin, P40/PHAP II, P30/PHAP I) (human) (UniProt P19338); assay: BIAcore, V3 loop-BPs immobilized on CM5
P95/nucleolin (human) [6] = target: P95/nucleolin (human) (UniProt P19338); assay: FACS on CEM cells with biotin-labeled construct; target printed as TASP-ligand
P30/PHAP I (human) = P30/PHAP I (human) (UniProt P39687); assay: saturation of the binding sites, method not stated
P40/PHAP II (human) = P40/PHAP II (human) (UniProt Q01105); assay: saturation of the binding sites, method not stated
P95/nucleolin (human) [7] = target: P95/nucleolin (human) (UniProt P19338); assay: saturation of the binding sites, method not stated
P95/nucleolin (human) [8] = target: P95/nucleolin (human) (UniProt P19338); assay: FACS on MOLT4 cells after trypsin; target TASP-Ligand [sic]
P95/nucleolin (human) [9] = target: P95/nucleolin (human) (UniProt P19338); assay: FACS on MOLT4 cells after pronase E; target TASP-Ligand [sic]
P95/nucleolin (human) [10] = target: P95/nucleolin (human) (UniProt P19338); assay: FACS on MOLT4 cells, no protease; target TASP-Ligand [sic]
P95/nucleolin (human) [11] = target: P95/nucleolin (human) (UniProt P19338); assay: FACS on MOLT4 cells after proteinase K; target TASP-Ligand [sic]
[12] = target: purified preparation of the V3 loop-BPs (P95/nucleolin, P40/PHAP II, P30/PHAP I) (human) (UniProt P19338); assay: BIAcore, V3-BPs
[13] = target: purified preparation of the V3 loop-BPs (P95/nucleolin, P40/PHAP II, P30/PHAP I) (human) (UniProt P19338)
[14] = target: CD4 (cellular, CEM and MOLT4 cells) (human) (UniProt P01730); assay: FACS on MOLT4 cells after trypsin
[15] = target: CD4 (cellular, CEM and MOLT4 cells) (human) (UniProt P01730); assay: FACS on MOLT4 cells, no protease
[16] = target: CD4 (cellular, CEM and MOLT4 cells) (human) (UniProt P01730); assay: FACS on MOLT4 cells after pronase E
[17] = target: CD4 (cellular, CEM and MOLT4 cells) (human) (UniProt P01730); assay: cell-based or functional assay
[18] = target: CD4 (cellular, CEM and MOLT4 cells) (human) (UniProt P01730); assay: FACS on MOLT4 cells after proteinase K
[19] = target: CD26 (on MOLT4 cells) (human) (UniProt P27487); assay: FACS on MOLT4 cells after trypsin
[20] = target: CD26 (on MOLT4 cells) (human) (UniProt P27487); assay: FACS on MOLT4 cells, no protease
[21] = target: CD26 (on MOLT4 cells) (human) (UniProt P27487); assay: FACS on MOLT4 cells after pronase E
[22] = target: CD26 (on MOLT4 cells) (human) (UniProt P27487); assay: FACS on MOLT4 cells after proteinase K
[23] = target: purified preparation of the V3 loop-BPs (P95/nucleolin, P40/PHAP II, P30/PHAP I) (human) (UniProt P19338); assay: BIAcore, V3 loop-BPs
[24] = target: recombinant gp120 of HIV-1 Lai (IIIB) (HIV-1 Lai (IIIB)) (UniProt P03377); assay: cell-based or functional assay
[25] = target: purified preparation of the V3 loop-BPs (P95/nucleolin, P40/PHAP II, P30/PHAP I) (human) (UniProt P19338); remark: listed apart in the source
recombinant soluble CD4 = recombinant soluble CD4 (UniProt P01730); assay: BIAcore, soluble CD4; row shifted one column to the left
[26] = target: purified preparation of the V3 loop-BPs (P95/nucleolin, P40/PHAP II, P30/PHAP I) (human) (UniProt P19338); assay: BIAcore, purified V3-BPs

Chain of P95/nucleolin (human) (P19338 2-710 limits assumed): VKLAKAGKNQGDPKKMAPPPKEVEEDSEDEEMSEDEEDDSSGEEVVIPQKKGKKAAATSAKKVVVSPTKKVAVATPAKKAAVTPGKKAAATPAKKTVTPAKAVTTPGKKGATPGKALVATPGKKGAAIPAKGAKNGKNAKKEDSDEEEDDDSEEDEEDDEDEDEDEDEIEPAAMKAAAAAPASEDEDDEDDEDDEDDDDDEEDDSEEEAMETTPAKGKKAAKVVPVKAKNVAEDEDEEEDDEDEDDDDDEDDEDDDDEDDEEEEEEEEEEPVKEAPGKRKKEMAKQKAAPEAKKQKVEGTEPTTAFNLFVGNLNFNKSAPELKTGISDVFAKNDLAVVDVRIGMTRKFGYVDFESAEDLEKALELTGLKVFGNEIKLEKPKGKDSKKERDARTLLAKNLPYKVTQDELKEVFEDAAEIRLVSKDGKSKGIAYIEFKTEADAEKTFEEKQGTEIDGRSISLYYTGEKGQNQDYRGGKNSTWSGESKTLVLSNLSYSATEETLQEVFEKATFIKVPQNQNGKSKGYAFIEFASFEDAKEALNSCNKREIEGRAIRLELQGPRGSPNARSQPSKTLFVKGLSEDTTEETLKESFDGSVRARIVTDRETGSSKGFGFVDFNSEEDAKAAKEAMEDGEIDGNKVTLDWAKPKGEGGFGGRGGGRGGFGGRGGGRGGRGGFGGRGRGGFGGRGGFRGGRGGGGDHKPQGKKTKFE
Chain of P40/PHAP II (human) (Q01105 other isoform, or with tags, fused parts or gaps limits assumed): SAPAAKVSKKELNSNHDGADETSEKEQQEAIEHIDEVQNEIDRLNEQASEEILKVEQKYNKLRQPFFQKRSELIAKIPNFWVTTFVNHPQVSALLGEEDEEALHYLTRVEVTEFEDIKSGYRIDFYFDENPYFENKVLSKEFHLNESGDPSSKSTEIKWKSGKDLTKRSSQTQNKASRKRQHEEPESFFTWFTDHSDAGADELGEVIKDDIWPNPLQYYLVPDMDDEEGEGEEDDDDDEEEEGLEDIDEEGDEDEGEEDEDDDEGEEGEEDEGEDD

Substance: 5[KPR]-TASP (peptide)
IC50 [1]: 300 nM
% of P95 recovery abolished (P95/nucleolin (human) [2]): 40 to 50%
Inhibition of HIV infection (IC50), HIV-1 in CEM cells, p24 at 4 days (P95/nucleolin (human) [3]): 5000 nM
Ka [4]: 1.5e+08 M⁻¹
koff [4]: 0.0024 s⁻¹
kon [4]: 350000 M⁻¹ s⁻¹
Ka [5]: 1.5e+08 M⁻¹
koff [5]: 0.0024 s⁻¹
kon [5]: 350000 M⁻¹ s⁻¹
EC50 (P95/nucleolin (human) [6]): 3500 nM

Substance: 5[Kψ(CH2N)PR]-TASP (peptide)
concentration giving 100% saturation of the binding sites (P30/PHAP I (human)): 8 µM
concentration giving 100% saturation of the binding sites (P40/PHAP II (human)): 4 µM
concentration giving 100% saturation of the binding sites (P95/nucleolin (human) [7]): 2 µM
% positive cells (P95/nucleolin (human) [8]): 92%
% positive cells (P95/nucleolin (human) [9]): 8%
IC50 of HIV entry (β-galactosidase), HeLa P4, HIV-1 Lai (P95/nucleolin (human) [3]): 500 nM
IC50 of HIV entry (β-galactosidase), HeLa P4-C5, HIV-1 Bal (P95/nucleolin (human) [3]): 800 nM
IC50 of HIV entry (β-galactosidase), HeLa P4-C5, HIV-1 UGO29A (P95/nucleolin (human) [3]): 300 nM
IC50 of HIV entry (β-galactosidase), HeLa P4-C5, HIV-2 ROD (P95/nucleolin (human) [3]): 400 nM
Inhibition of HIV infection (IC50), HIV-1 in CEM cells, p24 at 4 days (P95/nucleolin (human) [3]): 500 nM
Ka [5]: 9.61e+09 M⁻¹
% positive cells (P95/nucleolin (human) [10]): 100%
% positive cells (P95/nucleolin (human) [11]): 15%
Ka [12]: 9.61e+09 M⁻¹
EC50 (P95/nucleolin (human) [6]): 150 nM

Substance: 5[Kψ(CH2N)PR]-TASP with dehydroxyproline in place of proline (peptide)
IC50 of HIV entry (β-galactosidase), HeLa P4, HIV-1 Lai (P95/nucleolin (human) [3]): 100 nM
IC50 of HIV entry (β-galactosidase), HeLa P4-C5, HIV-1 89.6 (P95/nucleolin (human) [3]): 300 nM
IC50 of HIV entry (β-galactosidase), HeLa P4-C5, HIV-1 Bal (P95/nucleolin (human) [3]): 300 nM
IC50 of HIV entry (β-galactosidase), HeLa P4-C5, HIV-1 JRCSF (P95/nucleolin (human) [3]): 300 nM
IC50 of HIV entry (β-galactosidase), HeLa P4-C5, HIV-1 Lai (P95/nucleolin (human) [3]): 100 nM
IC50 of HIV entry (β-galactosidase), HeLa P4-C5, HIV-2 CBL (P95/nucleolin (human) [3]): 2000 nM
IC50 of HIV entry (β-galactosidase), HeLa P4-C5, HIV-2 ROD (P95/nucleolin (human) [3]): 200 nM

Substance: mAb OKT4A (antibody)
ELISA OD 450 nm [13]: 0.2 OD 450 nm
% positive cells [14]: 24%
% positive cells [15]: 100%
% positive cells [16]: 9%
inhibition of binding of HIV-1 particles to CEM cells (p24 in cell lysates) [17]: 75%
% positive cells [18]: 6%

% positive cells [19]: 100%
% positive cells [20]: 100%
% positive cells [21]: 97%
% positive cells [22]: 98%
Substance: mAb Ta1 (antibody)

Substance: nonglycosylated gp120 of HIV-1 SF2 (Env 2-3) (from UniProt P03378 32-509) (ligand)
fold reduction of affinity against glycosylated gp120 SF2 [23]: 10 fold
Ka [4]: 1.6e+08 M⁻¹
koff [4]: 0.0024 s⁻¹
kon [4]: 380000 M⁻¹ s⁻¹
Ka [5]: 1.6e+08 M⁻¹
koff [5]: 0.0024 s⁻¹
kon [5]: 380000 M⁻¹ s⁻¹

Substance: purified preparation of the V3 loop-BPs (P95/nucleolin, P40/PHAP II, P30/PHAP I) (from UniProt P19338 2-710; Q01105 2-277; P39687 1-249)
inhibition of HIV-1 Lai infection of CEM cells, multiple cycles, p24 at 5 days, 10 µg/ml [24]: 91%
inhibition of single cycle HIV-1 infection of CEM cells [24]: > 80%

Substance: recombinant gp120 of HIV-1 Lai (IIIB) (from UniProt P03377 33-516) (ligand)
Ka [4]: 2.1e+08 M⁻¹
koff [4]: 0.0021 s⁻¹
kon [4]: 440000 M⁻¹ s⁻¹
Ka [5]: 2.1e+08 M⁻¹
koff [5]: 0.0021 s⁻¹
kon [5]: 440000 M⁻¹ s⁻¹
IC50 [25]: 3 nM

Substance: recombinant gp120 of HIV-1 Lai (IIIB) (from UniProt P03377 33-516) (ligand; other documents disagree on this pair)
Ka (recombinant soluble CD4): 1.08e+09 M⁻¹
koff (recombinant soluble CD4): 0.0545 s⁻¹
kon (recombinant soluble CD4): 588000 M⁻¹ s⁻¹

Substance: recombinant gp120 of HIV-1 MN (from UniProt P05877 32-513) (ligand)
Ka [4]: 4.3e+08 M⁻¹
koff [4]: 0.00044 s⁻¹
kon [4]: 190000 M⁻¹ s⁻¹
Ka [5]: 4.3e+08 M⁻¹
koff [5]: 0.00044 s⁻¹
kon [5]: 190000 M⁻¹ s⁻¹

Substance: recombinant gp120 of HIV-1 SF2 (from UniProt P03378 32-509) (ligand)
Ka [4]: 2.32e+09 M⁻¹
koff [4]: 3e-05 s⁻¹
kon [4]: 65000 M⁻¹ s⁻¹
Ka [5]: 2.32e+09 M⁻¹
koff [5]: 2.8e-05 s⁻¹
kon [5]: 65000 M⁻¹ s⁻¹

Substance: synthetic V3 loop peptide of HIV-1 Ba-L
Ka [26]: 1.5e+06 M⁻¹

Substance: synthetic V3 loop peptide of HIV-1 Lai
Ka [26]: 5.1e+06 M⁻¹
fold affinity against the V3 loop of the macrophage-tropic isolate [26]: > 3 fold

From patent US20020076693A1, “Novel cell surface receptor for HIV retroviruses, therapeutic and diagnostic uses” (priority 1997, published 2002)
